Tested on: MS2 coat protein
Experiment: apparent KD of MS2 coat protein; designed switch direction (-1 OFF switch, 1 ON switch): -1; higher = weaker reporter binding
Outline: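 Designed RNA switches sharing common flanks were transcribed on Illumina chips by stalled E. coli RNA polymerase. They were titrated with SNAP-549-labelled MS2 coat protein, from 0.7 or 1.5 nM doubling to 3 µM, in Tris-HCl pH 7.5 buffer with KCl, MgCl2, BSA, DTT, tRNA and Tween-20. Titrations ran without input, with 200 uM small-molecule ligand, or with an oligonucleotide input. The apparent KD of each design is the median over its clusters, after curve-fitting of normalised cluster fluorescence.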

[1] = Eterna round: R95, input ligand: FMN 200 uM
[2] = Eterna round: R95, input ligand: microRNA oligo, concentration not stated
[3] = Eterna round: R95, input ligand: none
[4] = input ligand: microRNA oligo, concentration not stated

Sequence: AAAUGAGAGCAGGAUAUCUUAUAAAUGUAUGAAAGAGAAGGGCUCACAUGAGGAUCACCCAUGUGGUCCUAGAU [jl-ex6-4.77 jandersonlee mod] (Eterna round: R97, puzzle: Exclusion 6)
- apparent KD of MS2 coat protein (input ligand: FMN 200 uM): 673 nM
- apparent KD of MS2 coat protein (input ligand: none): 32.7 nM

Sequence: AAAUGUUCGGAGGAUAUAGAACGAUUGUCCGAGCUAGAAGGCCGAACAUGAGGAUCACCCAUGUGUACCUGAAA [Atmare] (puzzle: Exclusion 6)
- apparent KD of MS2 coat protein [1]: 256 nM
- apparent KD of MS2 coat protein [2]: 38.8 nM
- apparent KD of MS2 coat protein [3]: 41.2 nM

Sequence: AAAUUAGCAAGUAGAUCCGACAUGAGGAUCACCCAUGUUAUCUGAAAGAACGCAGCAUAAUUGUGAGCUCGUCUAAA [Sensor-V1 #4] (Eterna round: R97, puzzle: Sensor, turn-off variant 1)
- apparent KD of MS2 coat protein (input ligand: FMN 200 uM): 93.7 nM
- apparent KD of MS2 coat protein (input ligand: none): 91.5 nM

Sequence: AAAUUAGCAAGUAGGUCCGACAUGAGGAUCACCCAUGUAAGCUAAUCUUACGCUGCAUGAGAGUGCGCUCGUCUUAA [Sensor-V1 #19] (Eterna round: R97, puzzle: Sensor, turn-off variant 1)
- apparent KD of MS2 coat protein (input ligand: FMN 200 uM): 360 nM
- apparent KD of MS2 coat protein (input ligand: none): 515 nM

Sequence: AAAUUAGCAAGUAGGUCCGACAUGAGGAUCACCCAUGUUAGCUAAUCUAACGCUGCAUGAGAGUGCGCUCGUCUUAA [Sensor-V1 #20] (Eterna round: R97, puzzle: Sensor, turn-off variant 1)
- apparent KD of MS2 coat protein (input ligand: FMN 200 uM): 140 nM
- apparent KD of MS2 coat protein (input ligand: none): 149 nM

Sequence: AAAUUCAGAGGAUAUGCGCAUAGAUAAGACUUUUUUUCUUAACAUGAGGAUCACCCAUGUAGAAGGCUGUAAAC [Ex2 #61] (Eterna round: R97, puzzle: Exclusion 2)
- apparent KD of MS2 coat protein (input ligand: FMN 200 uM): 18.8 nM
- apparent KD of MS2 coat protein (input ligand: none): 16.2 nM

Sequence: AAAUUCUGAGGAUAUCGAUGUUUGUACAUGAGGAUCACCCAUGUCCUUUUUAUUUUUUCCCGAGAAGGCAGUGUAU [JR_E5_Sub099] (puzzle: Exclusion 5)
- apparent KD of MS2 coat protein [2]: 36.6 nM

Sequence: AAAUUGGUAGAGGAUAUCGCACAGGAUUUACUGCGAGAAGGCUGCACAUGAGGAUCACCCAUGUUUAGUUGCGA [EX6 #36] (Eterna round: R97, puzzle: Exclusion 6)
- apparent KD of MS2 coat protein (input ligand: FMN 200 uM): 20.3 nM
- apparent KD of MS2 coat protein (input ligand: none): 17.3 nM

Sequence: AAAUUGUGAGGAUAUUCGUAGUACACGGAGACGUGUAUUACGGAGAAGGCACAUGAGGAUCACCCAUGUUCCUU [jl-ex4-13 Eli mod] (Eterna round: R97, puzzle: Exclusion 4)
- apparent KD of MS2 coat protein (input ligand: FMN 200 uM): 103 nM
- apparent KD of MS2 coat protein (input ligand: none): 19.1 nM

Sequence: AACAAAAGCGUAGGAUAUGACUGGGCUCAUGCCUAACAUAACUACAAACAUGAGGAUCACCCAUGUCAGAAGGACGAAUAAAAU [Isesbequti] (Eterna round: R96, puzzle: Exclusion NG 2)
- apparent KD of MS2 coat protein (input ligand: FMN 200 uM): 87.1 nM
- apparent KD of MS2 coat protein [4]: 57.5 nM
- apparent KD of MS2 coat protein (input ligand: none): 72 nM

Sequence: AACAAGCUUUUAAGAUGAAAGAUAGUAGGUAGCUCCUUUACAUGAGGAUCACCCAUGUUUGUGUAGCUCGAUCUUAU [JR_SV3TOV2_Sub076] (puzzle: Sensor v3, turn-off variant 2)
- apparent KD of MS2 coat protein [1]: 12.3 nM
- apparent KD of MS2 coat protein [2]: 37.4 nM
- apparent KD of MS2 coat protein [3]: 11.5 nM

Sequence: AACACUGUAGGAUAUCAUGAACUGGACUUGAGGAUCACCCAAGUGUAUCCUGGAGUGCCGUGAGAAGGACGGAAAA [Erzalelaan] (Eterna round: R97, puzzle: Exclusion 5)
- apparent KD of MS2 coat protein (input ligand: FMN 200 uM): 56.5 nM
- apparent KD of MS2 coat protein (input ligand: none): 46.9 nM

Sequence: AACAGUACAGGAUAUACAUGAGGAUCACCCAUGUGAGAAACCACUGGCGUACCAGAAAGUAGAAGGGUACUGGA [Moding Maslow Revisited (73) 29] (Eterna round: R96, puzzle: Exclusion 3)
- apparent KD of MS2 coat protein (input ligand: FMN 200 uM): 307 nM
- apparent KD of MS2 coat protein [4]: 160 nM
- apparent KD of MS2 coat protein (input ligand: none): 146 nM

Sequence: AACCAUGAAGGAUAUGACUUAACGAACAUGAGGAUCACCCAUGUGACCGAGCAGUGUUGAUCAGAAGGUUAAGGUG [Rier] (puzzle: Exclusion 5)
- apparent KD of MS2 coat protein [1]: 101 nM
- apparent KD of MS2 coat protein [2]: 83.7 nM
- apparent KD of MS2 coat protein [3]: 139 nM

Sequence: AACCCUUGUGUUAGGAUAUGUCACUACCAUAUGCGACAGAAGGAACAUGAGGAUCACCCAUGUGAGUUAGCCAA [Quesveququ] (puzzle: Brourd's mod of Exclusion 4)
- apparent KD of MS2 coat protein [2]: 36 nM

Sequence: AACCUGAGGCAAAGCUUUAGGUGUACAUGAGGAUCACCCAUGUAGGAUAUGGUAGGCAAAGCUUACCAGAAGGACAUAAAGGUU [Mat - Exclusion NG 3 - Mod of JL - D45] (Eterna round: R96, puzzle: Exclusion NG 3)
- apparent KD of MS2 coat protein (input ligand: FMN 200 uM): 81.4 nM
- apparent KD of MS2 coat protein [4]: 36.4 nM
- apparent KD of MS2 coat protein (input ligand: none): 47.7 nM

Sequence: AACCUGAGGCUUUGCUUUAGGUGUACAUGAGGAUCACCCAUGUAGGAUAUGGUAGGCUUUGCUUACCAGAAGGACAUGUUAAUU [JL ENG3 1.11] (Eterna round: R96, puzzle: Exclusion NG 3)
- apparent KD of MS2 coat protein (input ligand: FMN 200 uM): 201 nM
- apparent KD of MS2 coat protein [4]: 48.9 nM
- apparent KD of MS2 coat protein (input ligand: none): 47.1 nM

Sequence: AACCUGAGGCUUUGCUUUAGGUGUACAUGAGGAUCACCCAUGUAGGAUAUGGUAGGCUUUGCUUACCAGAAGGACAUUUAGGUU [JL ENG3 1.15] (Eterna round: R96, puzzle: Exclusion NG 3)
- apparent KD of MS2 coat protein (input ligand: FMN 200 uM): 110 nM
- apparent KD of MS2 coat protein [4]: 33.6 nM
- apparent KD of MS2 coat protein (input ligand: none): 43 nM

Sequence: AACGACUGAGGAUAUACAUGAGGAUCACCCAUGUGUUGAAAUACGUGCUUGGUUAACUGUAGAAGGCAGAAAAU [Isxeen] (puzzle: Exclusion 3)
- apparent KD of MS2 coat protein [1]: 21.9 nM
- apparent KD of MS2 coat protein [2]: 12.8 nM
- apparent KD of MS2 coat protein [3]: 14 nM

Sequence: AACUAGGCAGGAUAUACAUGAGGAUCACCCAUGUAAAUUUUUCGUUUAACUUGAAUGUGUAGAAGGGCCAUAAA [Ex3 #52] (Eterna round: R97, puzzle: Exclusion 3)
- apparent KD of MS2 coat protein (input ligand: FMN 200 uM): 23.3 nM
- apparent KD of MS2 coat protein (input ligand: none): 24.6 nM

Sequence: AACUAGUCAGGAUAUACAUGAGGAUCACCCAUGUAAACUUUUAGUUUAAUUUGAAUGUGUAGAAGGGACAUAAA [Ex3 #43] (Eterna round: R97, puzzle: Exclusion 3)
- apparent KD of MS2 coat protein (input ligand: FMN 200 uM): 20.7 nM
- apparent KD of MS2 coat protein (input ligand: none): 20.3 nM

Sequence: AACUAGUGAGGAUAUACAUGAGGAUCACCCAUGUACGUCGUGGGUAGAAAACAAGUCAGUAGAAGGUGCUAGAC [Ininor] (puzzle: Exclusion 3)
- apparent KD of MS2 coat protein [2]: 174 nM

Sequence: AACUCACAUGAGGAUCACCCAUGUGAGGAUAUGAUACUAUGUACUUCGGUACAUAGUAUCAGAAGGCAUGUGGG [Ex1-3: 94] (puzzle: Exclusion 1)
- apparent KD of MS2 coat protein [2]: 49.7 nM

Sequence: AACUGUACAGGAUAUACAUGAGGAUCACCCAUGUGAGAAUUAAGUGGAGAACCACAAAGUAGAAGGGUACAGGA [Mat - Exclusion 3 - JL mod - D17] (Eterna round: R96, puzzle: Exclusion 3)
- apparent KD of MS2 coat protein [4]: 38.4 nM

Sequence: AACUGUCUAGAGGAUAUGCUGGAUUAAUAUCUGGCAGAAGGUUGGACAUGAGGAUCACCCAUGUAAAUACUACC [Omei Ex6 A7] (Eterna round: R97, puzzle: Exclusion 6)
- apparent KD of MS2 coat protein (input ligand: FMN 200 uM): 33.1 nM
- apparent KD of MS2 coat protein (input ligand: none): 20.3 nM

Sequence: AACUUCUGAGGAUAUACAUAGAUUUACAUGAGGAUCACCCAUGUUCCUCUAUGUAUAAAUGUAGAAGGCAGAAGAG [Mat - Exclusion 5 - JL Mod - D63] (Eterna round: R97, puzzle: Exclusion 5)
- apparent KD of MS2 coat protein (input ligand: FMN 200 uM): 71.3 nM
- apparent KD of MS2 coat protein (input ligand: none): 17.2 nM

Sequence: AAGAAACAUGAGGAUCACCCAUGUGAGGAUAUGAAAAAGAAAAGAAAAGAAAGAAGAAUCAGAAGGCACAAAGC [salish99-ex1_r3_090] (Eterna round: R96, puzzle: Exclusion 1)
- apparent KD of MS2 coat protein (input ligand: FMN 200 uM): 24 nM
- apparent KD of MS2 coat protein [4]: 25.3 nM
- apparent KD of MS2 coat protein (input ligand: none): 31.2 nM

Sequence: AAGAAACAUGAGGAUCACCCAUGUGAGGAUAUGAAAAAGAAAAGAAAAGAAAGAAGAAUCAGAAGGCACAAAGC [salish99-ex1_r3_090] (puzzle: Exclusion 1)
- apparent KD of MS2 coat protein [1]: 22.5 nM
- apparent KD of MS2 coat protein [2]: 28.6 nM
- apparent KD of MS2 coat protein [3]: 32.1 nM

Sequence: AAGAAACAUGAGGAUCACCCAUGUGAGGAUAUGAAAAAUAAAAGAAAAGAAAUAAUAAUCAGAAGGCACAAAGG [Mat - Mod of Hog D9] (puzzle: Exclusion 1)
- apparent KD of MS2 coat protein [1]: 43 nM
- apparent KD of MS2 coat protein [2]: 26.6 nM
- apparent KD of MS2 coat protein [3]: 28.9 nM

Sequence: AAGAAACAUGAGGAUCACCCAUGUGAGGAUAUGAAAAAUAAAAUAAAAUAAAUAAUAAUCAGAAGGCACAAAGG [Mat - Mod of Hog D7] (puzzle: Exclusion 1)
- apparent KD of MS2 coat protein [1]: 37.3 nM
- apparent KD of MS2 coat protein [2]: 34.1 nM
- apparent KD of MS2 coat protein [3]: 42 nM

Sequence: AAGAAACAUGAGGAUCACCCAUGUGAGGAUAUGACGAAGAAAAGAAAAGAAAGAAGACUCAGAAGGCACAAAGG [salish99-ex1_r3_076] (puzzle: Exclusion 1)
- apparent KD of MS2 coat protein [1]: 48 nM
- apparent KD of MS2 coat protein [2]: 26.7 nM
- apparent KD of MS2 coat protein [3]: 43.4 nM

Sequence: AAGAAACAUGAGGAUCACCCAUGUGAGGAUAUGAUCAAGAAAAGAAAAGAAAGAAGACUCAGAAGGCACAAAGG [salish99-ex1_r3_071] (puzzle: Exclusion 1)
- apparent KD of MS2 coat protein [1]: 162 nM
- apparent KD of MS2 coat protein [2]: 210 nM
- apparent KD of MS2 coat protein [3]: 548 nM

Sequence: AAGAAACAUGAGGAUCACCCAUGUGAGGAUAUGAUCAAGAAAAGAAAAGAAAGAAGAUUCAGAAGGCACAAAGG [salish99-ex1_r3_056] (puzzle: Exclusion 1)
- apparent KD of MS2 coat protein [1]: 124 nM
- apparent KD of MS2 coat protein [2]: 160 nM
- apparent KD of MS2 coat protein [3]: 362 nM

Sequence: AAGACAAUUCUCUAGUGCAACAUGAGGAUCACCCAUGUCAUAGAAGCUUUUUGCUCGUGUUAAGUGACUCAAGAGAG [Eternabot (Original) Solution 41] (Eterna round: R97, puzzle: Sensor, turn-off variant 1)
- apparent KD of MS2 coat protein (input ligand: FMN 200 uM): 69.6 nM
- apparent KD of MS2 coat protein (input ligand: none): 64.2 nM

Sequence: AAGACUAGAGGAUAUACAUGAGGAUCACCCAUGUAACUGUCAGGUGACUGACGGAAAUGUAGAAGGCUAGUCAA [Mat - Exclusion 3 - JL mod - D81] (Eterna round: R96, puzzle: Exclusion 3)
- apparent KD of MS2 coat protein (input ligand: FMN 200 uM): 54.2 nM
- apparent KD of MS2 coat protein [4]: 13.6 nM
- apparent KD of MS2 coat protein (input ligand: none): 16.8 nM

— the supplement of paper PMC9170038
